Earlier results, collected in article PMC8714859.

What was measured:
[1] = target: M-CSF (Homo sapiens) (UniProt P09603)
[2] = target: interleukin-34 (Homo sapiens) (UniProt Q6ZMJ4)
UniProt Q6ZMJ4, sequence (Q6ZMJ4 21-242): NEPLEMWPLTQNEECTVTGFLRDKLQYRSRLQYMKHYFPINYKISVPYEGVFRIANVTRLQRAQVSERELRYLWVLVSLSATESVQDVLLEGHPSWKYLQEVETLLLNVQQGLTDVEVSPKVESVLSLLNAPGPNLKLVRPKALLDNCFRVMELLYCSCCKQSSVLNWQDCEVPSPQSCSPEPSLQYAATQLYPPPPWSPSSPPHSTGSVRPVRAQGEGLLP

UniProt P09603, sequence (P09603 33-190): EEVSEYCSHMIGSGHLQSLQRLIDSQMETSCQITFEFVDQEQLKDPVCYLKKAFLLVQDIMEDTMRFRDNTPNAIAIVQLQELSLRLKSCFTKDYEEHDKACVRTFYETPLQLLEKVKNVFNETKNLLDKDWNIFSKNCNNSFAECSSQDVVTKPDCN

Kd [1]: 0.034 nM
Kd [2]: 0.001 nM
Substance: M-CSF receptor (from UniProt P07333)
